The experiment addresses APOBEC3B with C-terminal 3xHA tag (A3Bi-3xHA) (human) (UniProt Q9UH17). As to the kind of experiment: cell-based or functional assay.

As for “hnRNPUL1-Cas9n-UGI-NLS (heterogeneous nuclear ribonucleoprotein U-like fused to the N-terminal end of Cas9 nickase, in the BE3 vector in place of APOBEC1) (from UniProt Q9BUJ2 1-856; Q99ZW2 2-1368; P14739 2-84)”, the eGFP-positive 293T cells 72 hours post-transfection (chromosomal eGFP Leu202 reporter) was 1.5% and the episomal eGFP Leu202 reporter editing frequency against the BFP-Cas9n/gRNA background was over 2 fold.

Source of the values: patent US20210108188A1.
